The values that follow come from a protein production outcome set (Wang et al. 2014).

The series can be described thus: label from the status in PepcDB records.
“MPDSVEDTSTISLRICLEGHANALALNKDNNQIALAGRSLLKVYSINSNGFTESCNMRGKNQNLSYSANDVAWSTLDSNLLATAATNGVVSVWDLSKFGRQKQLLVYNEHERTAHTVTFHSSEPNILISGSQDGTIKCFDIRSDKSINTYFCNSESVRDVKFSPHTQNIFSAVSENGTVQLWDMRKWDKCMVQFTAHYGPVYTCDWHPTRNWLATGSRDKQIKVWNMDGRPGLEHTIHTIAVVGRVKWRPERTYHIASCALVVDYSVHVWDIRRPYIPFASFNEHTNVTTGIAWQGSDSHCLLSISKDSTIYKHAFKDATRPALKANAQGASLGRFGDISFANKIKEYEPKTSGASNTKSSSFIRRKTNVAGSIQFHLDHSKMYKFMVNDTFSGYPLSESVSRPTQEHESFIGCARELVISGKKLSELCEHNAEVSKKYGKHNATTLWNFIKLFYGSNHFEPPFEHRSSFSNQKNPMNSRRATQVASDWPQQRTELGQDLNGNTPETAHEIDVANVDDDTLGSSGVEHPPTSSVILSETQIISEITFDNFELLRNGFIYVGPTECPKALAFPALHHDVQAARPQLDLKASDHEKSPVS”: the protein production entry is “failed”.

On to “MGSVSNQQFAGGCAKAAEEAPEEAPEDAARAADEPQLLHGAGICKWFNVRMGFGFLSMTARAGVALDPPVDVFVHQSKLHMEGFRSLKEGEAVEFTFKKSAKGLESIRVTGPGGVFCIGSERRPKGKSMQKRRSKGDRCYNCGGLDHHAKECKLPPQPKKCHFCQSISHMVASCPLKAQQGPSAQGKPTYFREEEEEIHSPTLLPEAQN”, for which the protein production result is on record as “failed”.

“MMRDSPSIQGTLDAATQHALLAGRHADPFSVLGPHQAGAHTVVRVLAPGARTVMAVLPGGQRTPLLPMQPGLFENTVPGLQPGAPAAYRLCIEWEGGIQHTADPYAFGPVLD”: the protein production result is on record as “failed”.

For the sequence “MMKIFIRILLLFYYVFILLACGDKKESISINYILMARVTNMQTDEIKIDTPSRTIFIKLITGGDLSNVHVNLTLAKGVEMVEPANTESVYDFTKPASVTLKYKEEIITYHFIIDTEYNIVDPATLGWVKSTEWGTLPDYLAIYKSPSTLKGKNAVAYIAVADMDKNASFSVLGNATGVKTLTQFYNAESVKPAIVMNGGYFASNGATVSLLYRNNVMLAPNLQSMSRSDGTSNVAFYPTRSAFGEIENGKFEVNWVYTVSSGQTYAYPAPSPNKSGVSPMQIPSVNYPEGASIWKAKNAIGGGPVLLKNGLYKNTWEAELFDTASGIGPTSNNPRSAIGITGDNRLIFFVCEGRNKTPNVPGFTLEEVAYILRDLGCLDAMNLDGGGSSCMLVNGQETIKPSDGAQRSVTTAVAIK”, the protein production result is “failed”.

In the case of “MKKLLRNLFGSGREEEKRSASDAMSGREQIVTNSEKSNLSTDPDHVNRQADTLKFDAIRAMNMGELVFATEALRKAMELRPEFETRYYLTEALLRRHLTEEALAQMNLLLEEVPMHTATLLNRAKLRLEQNDPSRALEDCGTGIESTSELEEQALFLYYGASAMKDMKNLKDALCLLKQAIEKNDAFIPARLLRARILIDLERYEEATQDLDWVAASDPEEEQVPMLRARLFMLEGKQQNAIQAYEELLSLDPFNEEGHCGIATLMIKEGRSAEAETFLREAIEEMPVQRNLILMLVEILENKGQTQEAAEWRAKLPEAEVESEAVNFNDLYKGNLY”, the protein production entry is recorded as “failed”.

With “MLHYVHVGNKKSPNTLLFVHGSGCNLKIFGELEKYLEDYNCILLDLKGHGESKGQCPSTVYGYIDNVANFITNSEVTKHQKNITLIGYSMGGAIVLGVALKKLPNVRKVVSLSGGARFDKLDKDFMEKIYHNQLDNNYLLECIGGIDNPLSEKYFETLEKDPDIMINDLIACKLIDLVDNLKNIDIPVKAIVAKDELLTLVEYSEIIKKEVENSELKIFETGKHFLLVVNAKGVAEEIKNFI”, the protein production result was “not failed”.

As for “MSETPERGLGSRAGVVLVDRYRLDERIGVGGMGEVWRATDILLSRPVAVKLLHLAQVSDPVSQQRFRTEAQITAALSHPNIAQVYDYGEQDGFSFLVMELITGESLSAIIKRNPGLDPDITLDVVDQAAQALSAAHANGVIHRDIKPGNLLVTEDGTVKLTDFGIARGNESVTLTQTGMVMGTAQYISPEQVSGKPASPLSDIYALGIVAYECLAGHPPFTADTPLALALAHSREPPPPLPDSVPPAVRELVECMLAKDPQERPSSAAEVSQWAQRLRAALNGGDATEALGLVSATAATAVVPAQPGPPTGDSTPVDGPHSGAQAQTWPPPQGKDSDRVAERSAAPNSRLNLPVVFALIATVGAVAVGIFLVGLLGKEPGTNGTPTSHRSVVPTLSRSPDTTENITTDSQTPVPDNPGGQLPPLNDEPEESYSPAPHPEPTTPPQSEYPSPPGDGADSTPDPGEEPGGPSDEDDADGGGAAPGGPTGGTGEESRGSTPP”, the protein production entry is given as “failed”.

Regarding “MPPFMSGLRAVSSLLSCRNAISRKLVSRSGIPRGSFVSDQIRRFGSLSGVERCSSNWLMSNDDARVSFRRLPGSVSLLQRRHFLGCGDGEEGGGELSKIYEERRVLGYTPEQMFNVVAAVDLYHGFVPWCQRSEVLKEYPDGSFDAELEIGFKFLVESYISHVESERPKWIKTTARDTGLFDHLINLWQFKPGPIPGTCDLHFHVDFKFNSPLYRQVASMFFKEVASRLVGAFSDRCRLVYGPGVRVDENAYEQRA”, the protein production result is recorded as “failed”.

As to “MPTDDIVQLLKGQEEAWNRGDLDAYMQGYWQNEQLMLISNGKFRNGWDETLAAYKKNYPDKESLGELKFTIKEIKMLSNYAAMVVGRWDLKRLKDTPTGVFTLLVEKIDDRWVITMDHSSD”, the protein production entry is “not failed”.

For “MGAIPKTGTISPEQKDSQEKNLFQKIWSWEIGVIPLPLYTVLAVIIILAAYYNELPANMLGGFAIIMILGVFLGDIGQRIPILKDIGGPAILSLFVPSFLVFYNVLNSTSLDAVTNLMKTSNFLYFYIACLVVGSILGMNRIVLIQGFIRMFVPLVAGTIAAVAAGILVGFIFGYSAYDSFFFVVVPIIAGGIGEGILPLSIAYSQILGSSADVFVSQLVPAAIIGNVFAIICAALMKKLGDKRPDLNGNGRLVKSKKANEIFNQKEAEAKIDFKLMGAGVLLACTFFIFGGLLEKFIFIPGAILMIISAAAVKYANILPKKMEEGAYQLYKFISSSFTWPLMVGLGILFIPLDDVASVISIPFVIICISVVIAMIGSGYFVGKLMNMYPVESAIVTCCHSGLGGTGDVAILSASGRMGLMPFAQISTRLGGAGTVICATVLLRFFTS”, the protein production entry is “failed”.

“MAKYDVLTIGNAIVDIIARCDDSFLEENGIIKGAMNLINADRAELLYSRMGPAVEASGGSAGNTAAGVASLGGRAAYFGKVADDQLGEIFTHDIRAQGVHFQTKPLDGHPPTARSMIFVTEDGERSMNTYLGACVELGPEDVEDDVVAQSKVTYFEGYLWDPPRAKDAIREAARIAHAHGRETAMTLSDSFCVHRYRSEFLELMRSGTVDIVFANRQEALALYETEDFDRALELLARDCKLAAVTLSEEGSVVVRGAERVRVGASVLEQVVDTTGAGDLYAAGFLFGYTSGRSLEECSKLGNLAAGIVIGQIGPRPLVSLATAARQAALV”: the protein production result is recorded as “not failed”.

As for “FHWVNDGYADFDGFLAALSSRKRKAIRKERAQAQGFGGQIRELTGGDLRPEHWDAFWRFYQDTGARKWGSPYLTRAFFDIAHQTMADDMVLVLAERDGIPVAGALNFIGREALFGRYWGCVEHHPCLHFELCYYRAIDWAIAHGLARVEAGAQGEHKLARG”, the protein production result is listed as “not failed”.

Turning to “REHNYPDTCFEHFVASSVAVYPVFELAAKSTGRIGQLLRSAVYESSAWQQGGNTHFGAFLLLIPLAMAAGEISREQGEQPGCGKTFFRIEAEEFENLASHAHAFVRETDCEDAVEFYRAFGHAGVRVNSVEEFDLEDPEATSDLRNQNITLYSLMEIAKGYDLIANEWTSGFGRCLEGAKIILDFMDARNCREEALAGGSVSICSGTGINEAVVYTFLKLLSKHRDTFIQTKFDAETADYVSSRAGEVLSGWEISGKKAGDFASILPRIQEFDSELLDKRINPGSTADIIIAALFIALLGGLR”, the protein production result is given as “failed”.

On to “MAIHVGIIDQDPVRLVTPLLDHRTVSRHIIFIGDHTQTVIYQRLSDVLNKRNISTDFFEIPAGSNTSAIKSAIRELAETLKARGEEVKFNASCGLRHRLLSAYEVFRSYHWPIFVVEPNSDCLCWLYPEGNNDTQVQDRITIADYLTIFGARGEFNEHQLSPQLDQQLYQLGERWASNALELGPGLATLNYLATTCRKEQKLDVELSDKQQGYRELNLLLSDLVEAKIASYENGILTFINEEARRFANGEWLETLVHSTVKQIQDDMPTIQDRSLNVQVYRQLGEREVRNELDVATVVNNKLHIIECKTKGMRDDGDDTLYKLESLRDLLGGLQARAMLVSFRPLRHNDITRAEDLGLALIGPDELKDLKTHLTQWFKAAGGN”, for which the protein production entry was “not failed”.

In the case of “MRPVPPPPDRSGRCFASPRRSDLSPQAGRGEEPLAAPIEPSLPPSRPIPGRPAPPGTFAMDWTWYLFRFDGRINRALLWQALLIVALLAGLLEIVGQVIGILGGTRSTLKLAIDLDFDFGLDDLFKLVDPRASRSLASADRATSILKASGMALFFWIYLATTIKRLHDRDRSGWWIVPFFVVPGLFSQFADLLPNSNWMLPFSLAVSILWLWGLVEMFCRPGTSGHNRFGPDPLADFEDSSAASPAQGWDQSREIEIVPPNASPPGGMHVKRGA”, the protein production entry is on record as “failed”.

“MVSTLGSDTFTSISAHDLHGKLGNIHLIDVRENDDFKEGHIPTSRNIPMDILLKEPEKYINKTDEYYIVCQAGVKSEKTCKELWSKGYKVINIKDGTDSYKQPLEHHHHHH”: the protein production entry is listed as “failed”.

In the case of “GTAYWKNPDQFTAFNTGLHALLREKSYNFFLLGEPRADIYGDNPIGGEASQGMERLPFNTINKENVGISNYGDMYKIINQINQMIAKTTETTILTEATQNYYLGEAYGMRAYLYFHLLRSWGDVVLYLDYTEGQNLDLSNITKGVSPATEVMEQIKKDIQASENAFGSDYSFKLGRHFWSAAATQMLKGEAYLWSGRQMNGGNSDYTIAKNAFENVKKADVGLVTSSFKDIFSFENKKNKEMIFTIHNGKDEYEMWGGYYRMRLIPAQDKMVKIYCDENGNSFVGTPDAQLNGLTQLQVRREFYFKGFRNNDTRWTTSLKAVYKKDAQGVVSYFGPITYKFQGTMLEGGSTRSFLDDFPIYRYADCLLQLAMAKVLLGEDPTEEINAVRERAYGSKYFNEHKAEIAYPNDNDPEFYTDNKWMKPDNAGALEAILKERLREFMFEGKRWYDIRLLGWDYVHQYSSAEQSRLLWPIDAGTLTNNSALKQTPGYE”, the protein production result was “not failed”.

On to “MAVTDVFARRATLRRSLRLLADFRYEQRDPARFYRTLAADTAAMIGDLWLATHSEPPVGRTLLDVGGGPGYFATAFSDAGVGYIGVEPDPDEMHAAGPAFTGRPGMFVRASGMALPLADDSVDICLSSNVAEHVPRPWQLGTEMLRVTKPGGLVVLSYTVWLGPFGGHEMGLSHYLGGARAAARYVRKHGHPAKNNYGSSLFAVSAAEGLRWAAGTGAALAVFPRYHPRWAWWLTSVPVLREFLVSNLVLVLTP”, for which the protein production entry is on record as “failed”.

For the sequence “MSYSWKKILIKPESTVVDALRVIDNEALRIALVVNDEQQLLGVVTDGDIRRGLLNNLPLETPVVDIMSRSPITASVNTAKEQLVKLMESKSILAVPLMEENKVVGLETLHHLFEEKTYHNPVFIMAGGFGTRLRPLTDTCPKPMLKIGNKPILETVIRSFIKAGFVNFYISTHYMPEQIQNHFGDGSELGVKISYVHEDSPLGTGGALGLLPDDLPQDLPLIMMNGDVLTKVDFERLLDFHTENQADATMCVREYDYQIPYGVINGKGNKITSMVEKPIQRFFVNAGIYVVSPSVIQSVPKNHHIDMPTLLEQHMNERDNILMFPIHEYWLDIGRMDDFNRAQADIHTLGLDLEHHHHHH”, the protein production result was “failed”.

Regarding “DDPEQFEVIKQQKEIIEHGIELFNKKPKRGIQFLQEQGMLGTSVEDIAQFLHQEERLDSTQVGDFLGDSARFNKEVMYAYVDQLDFCEKEFVSALRTFLEGFRLPGEAQKIDRLMEKFAARYIECNQGQTLFASADTAYVLAYSIIMLTTDLHSPQVKNKMTKEQYIKMNRGINDSKD”, the protein production result was “failed”.
